Test results: patent US11440969B2, “Use of human epididymis protein 4 (HE4) for assessing responsiveness of MUC 16-positive cancer treatment” (Genentech, Inc., priority 2016, dated 2022)

Test system: platinum-resistant ovarian cancer
Assay: Clinical activity of DMUC5754A (RECIST v1.1) in ovarian cancer patients
Type: in vivo, human
Procedure: This multicenter, open-label, dose-escalation study was designed to identify the recommended Phase II dose (RP2D) of DMUC5754A in patients with platinum-resistant OC or unresectable pancreatic cancer. In the single-agent dose escalation stage utilizing a 3+3 enrollment scheme, patients were given intravenous DMUC5754A (Genentech Inc.) 0.3-3.2 mg/kg every 3 weeks (q3w) to evaluate the safety, tolerability, and pharmacokinetics of DMUC5754A. Following determination of the maximum tolerated dose (MTD), dose-expansion cohorts were enrolled at the RP2D of 2.4 mg/kg to further characterize the safety and preliminary clinical efficacy of DMUC5754A.
Dosing on a weekly (qlw) schedule was also evaluated at the RP2D, employing a 3+3 design to determine the MTD of weekly dosing, followed by a cohort expansion to further characterize the safety and activity of q1w dosing.
OC patients had advanced, epithelial ovarian, primary peritoneal, or fallopian tube cancer that progressed or relapsed within 6 months after the most recent treatment with a platinum-containing chemotherapy regimen and for which no standard therapy exists. […] Progression or relapse from prior platinum-based chemotherapy was documented by RECIST v1.1 or Gynecologic Cancer Intergroup (GCIG) CA125 progression criteria (Vergote et al., 2000). Patients were allowed ≤2 prior chemotherapy regimens.
Objective response rate was estimated only for patients with disease that was measurable by RECIST guidelines. Objective response is defined as a complete or partial response, as determined by investigator assessment and confirmed by repeat assessments ≥4 weeks after initial documentation. Duration of objective response was defined as the time from the initial complete or partial response to the time of disease progression or death.

B1: DMUC5754A: antibody-drug conjugate: humanized IgG1 anti-MUC16 monoclonal antibody and MMAE, linked through protease labile linker maleimidocaproyl-valine-citrulline-p-aminobenzyloxycarbonyl (conjugate, chains of the INN, looked up)
VH: EVQLVESGGGLVQPGGSLRLSCAASGYSITNDYAWNWVRQAPGKGLEWVGYISYSGYTTYNPSLKSRFTISRDTSKNTLYLQMNSLRAEDTAVYYCARWTSGLDYWGQGTLVTVSS
VL: DIQMTQSPSSLSASVGDRVTITCKASDLIHNWLAWYQQKPGKAPKLLIYGATSLETGVPSRFSGSGSGTDFTLTISSLQPEDFATYYCQQYWTTPFTFGQGTKVEIK
modifications: MMAE via mc-vc-PABC linker
Best response: Complete response, patients (0.8 mg/kg q1w (N = 3)): 0
Best response: Partial response, patients (0.8 mg/kg q1w (N = 3)): 1
Best response: Progressive disease, patients (0.8 mg/kg q1w (N = 3)): 0
Best response: Stable disease, patients (0.8 mg/kg q1w (N = 3)): 2
Best response: Unable to evaluate, patients (0.8 mg/kg q1w (N = 3)): 0
Duration of response, Median (0.8 mg/kg q1w (N = 3)): 3.0 months
Duration of response, Range (0.8 mg/kg q1w (N = 3)): 3.0-3.0 months
unconfirmed partial responses, patients (1.1 mg/kg q1w): 1
Best response: Complete response, patients (1.1 mg/kg q1w (N = 7)): 0
Best response: Partial response, patients (1.1 mg/kg q1w (N = 7)): 1
Best response: Progressive disease, patients (1.1 mg/kg q1w (N = 7)): 3
Best response: Stable disease, patients (1.1 mg/kg q1w (N = 7)): 3
Best response: Unable to evaluate, patients (1.1 mg/kg q1w (N = 7)): 0
Duration of response, Median (1.1 mg/kg q1w (N = 7)): 6.8 months
Duration of response, Range (1.1 mg/kg q1w (N = 7)): 6.8-6.8 months
minor responses, patients (1.2 mg/kg q3w): 1
minor responses, patients (1.4 mg/kg q1w): 1
Best response: Complete response, patients (1.4 mg/kg q1w (N = 6)): 0
Best response: Partial response, patients (1.4 mg/kg q1w (N = 6)): 1
Best response: Progressive disease, patients (1.4 mg/kg q1w (N = 6)): 2
Best response: Stable disease, patients (1.4 mg/kg q1w (N = 6)): 2
Best response: Unable to evaluate, patients (1.4 mg/kg q1w (N = 6)): 1
Duration of response, Median (1.4 mg/kg q1w (N = 6)): 4.6 months
Duration of response, Range (1.4 mg/kg q1w (N = 6)): 4.6-4.6 months
minor responses, patients (1.6 mg/kg q1w): 1
minor responses, patients (2.4 mg/kg q3w): Two
unconfirmed partial responses, patients (2.4 mg/kg q3w): 1
Best response: Complete response, patients (2.4 mg/kg q3w (N = 29)): 1
Best response: Partial response, patients (2.4 mg/kg q3w (N = 29)): 3
Best response: Progressive disease, patients (2.4 mg/kg q3w (N = 29)): 6
Best response: Stable disease, patients (2.4 mg/kg q3w (N = 29)): 17
Best response: Unable to evaluate, patients (2.4 mg/kg q3w (N = 29)): 2
Duration of response, Median (2.4 mg/kg q3w (N = 29)): 4.9 months
Duration of response, Range (2.4 mg/kg q3w (N = 29)): 3.0-11.3 months
minor responses, patients (3.2 mg/kg q3w): 1
average length of time on the study (FIG. 4): 103 days
decrease in SLD of target lesions (a patient at 3.2 mg/kg q3w, PD as overall status due to new lesions): > 30%
patients on the study ≥105 days (of the 29 patients at 2.4 mg/kg q3w): Sixteen
reduction (MRI), complete response (person, 2.4 mg/kg IV q3w, after two doses): 100%
tumor response nadir, reduction (person, 2.4 mg/kg, after 8 doses): 88%
reduction in 3 target lesions (CT), partial response (person, 2.4 mg/kg, after two doses): 37%
confirmed responses (q1w cohorts, at 0.8, 1.1, and 1.4 mg/kg levels): 3
